Literature values as cited in article PMC6858539.
Where two headings read alike, the source gives them in different places.

Legend:
[1] = target: RodZ nascent chain on ribosome (RNC-RodZ) (Escherichia coli) (UniProt P27434)
[2] = target: RodZ nascent chain on ribosome (RNC-RodZ) (Escherichia coli) (UniProt P27434); remark: listed apart in the source

Chain of UniProt P27434 (P27434 whole entry): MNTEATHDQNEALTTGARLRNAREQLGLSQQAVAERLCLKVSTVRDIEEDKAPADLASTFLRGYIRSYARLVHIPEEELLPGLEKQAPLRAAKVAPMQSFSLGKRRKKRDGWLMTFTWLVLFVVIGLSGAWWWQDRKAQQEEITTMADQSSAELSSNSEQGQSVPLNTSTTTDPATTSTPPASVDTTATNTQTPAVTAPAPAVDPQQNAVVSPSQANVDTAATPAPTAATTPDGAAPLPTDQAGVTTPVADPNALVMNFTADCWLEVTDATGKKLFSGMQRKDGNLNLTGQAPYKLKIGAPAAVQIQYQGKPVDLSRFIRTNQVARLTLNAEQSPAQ

| Substance | Kd [1] | Kd [2] |
| --- | --- | --- |
| SRP (from UniProt P0AGD7) | 24 nM |  |
| SecA (from UniProt P10408) |  | < 1 nM |
